The source of these data is PMC4509486.

Test in all cases: cross-linking; copper-phenanthroline (1 mM CuSO4/3 mM 1,10-phenanthroline) disulfide cross-linking of purified protein (1 mg/ml) in 20 mM HEPES pH 7.4, 150 mM NaCl, 1 mM TCEP, on ice 15 min; non-reducing SDS-PAGE; efficiency = dimer/(monomer + dimer)
The target in experiment [1] is GB1-TM-CC1 monocysteine variant A230C (not stated (human or mouse cDNA cloned)) (UniProt Q13586).
The target of experiment [2] is GB1-TM-CC1 monocysteine variant G226C (not stated (human or mouse cDNA cloned)) (UniProt Q13586).
In experiment [3] the target is GB1-TM-CC1 monocysteine variant I222C (not stated (human or mouse cDNA cloned)) (UniProt Q13586).

As to “GB1-TM-CC1 monocysteine variant A230C (from UniProt Q13586 209-310) (domain or fragment)”, the disulfide cross-linking efficiency in experiment [1] is over 70%.

With “GB1-TM-CC1 monocysteine variant G226C (from UniProt Q13586 209-310) (domain or fragment)”, the disulfide cross-linking efficiency in experiment [2] is over 70%.

With “GB1-TM-CC1 monocysteine variant I222C (from UniProt Q13586 209-310) (domain or fragment)”, in experiment [3], the disulfide cross-linking efficiency was over 70%.
